Patent US20180051079A1 (MacroGenics, published 2018)

T1: CD32B (UniProt P31994 43-217, limits assumed)
T1 construct: Only the name is printed; also called FcγRIIB
T1 sequence (looked up): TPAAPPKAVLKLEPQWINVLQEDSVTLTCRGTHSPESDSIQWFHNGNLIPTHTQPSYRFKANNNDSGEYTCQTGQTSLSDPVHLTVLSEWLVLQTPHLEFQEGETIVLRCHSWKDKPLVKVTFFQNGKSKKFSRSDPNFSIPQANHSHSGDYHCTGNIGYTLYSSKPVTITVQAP

B1: Fc variant D270E G316D P396L R416G (other, UniProt P01857-1 104-330, looked up)
chain: DKTHTCPPCPAPELLGGPSVFLFPPKPKDTLMISRTPEVTCVVVDVSHEEPEVKFNWYVDGVEVHNAKTKPREEQYNSTYRVVSVLTVLHQDWLNDKEYKCKVSNKALPAPIEKTISKAKGQPREPQVYTLPPSRDELTKNQVSLTCLVKGFYPSDIAVEWESNGQPENNYKTTPLVLDSDGSFFLYSKLTVDKSGWQQGNVFSCSVMHEALHNHYTQKSLSLSPGK
notes: domain: Fc; also called D270E P396L G316D R416G
B2: Fc variant R292P V305I P396L (other, UniProt P01857-1 104-330, looked up)
chain: DKTHTCPPCPAPELLGGPSVFLFPPKPKDTLMISRTPEVTCVVVDVSHEDPEVKFNWYVDGVEVHNAKTKPPEEQYNSTYRVVSILTVLHQDWLNGKEYKCKVSNKALPAPIEKTISKAKGQPREPQVYTLPPSRDELTKNQVSLTCLVKGFYPSDIAVEWESNGQPENNYKTTPLVLDSDGSFFLYSKLTVDKSRWQQGNVFSCSVMHEALHNHYTQKSLSLSPGK
notes: domain: Fc; also called Mutant 15

Assays:
CD32B [1] = molecular target: T1, CD32B; test: assay not named in Table 4; cell stands under CD16A F158 but fits CD32B (0.94/1.07 = 0.88)
CD32B [2] = molecular target: T1, CD32B; test: assay not named in Table 4
CD16A V158 = molecular target: T2, CD16A V158 (UniProt P08637 17-208, limits assumed); test: assay not named in Table 4
T2 construct: Only the name and allotype are printed; also called FcγRIIIA
T2 sequence (P08637 17-208 F176V limits assumed): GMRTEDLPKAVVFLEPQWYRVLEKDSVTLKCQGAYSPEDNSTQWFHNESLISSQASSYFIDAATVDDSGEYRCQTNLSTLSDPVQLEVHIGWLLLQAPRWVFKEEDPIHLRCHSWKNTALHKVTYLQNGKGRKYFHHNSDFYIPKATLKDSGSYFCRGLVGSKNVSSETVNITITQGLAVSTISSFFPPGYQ

CD16A F158 = molecular target: T3, CD16A F158 (UniProt P08637 17-208, limits assumed); test: assay not named in Table 4
T3 construct: Only the name and allotype are printed; also called FcγRIIIA
T3 sequence (P08637 17-208 limits assumed): as the sequence (P08637 17-208 F176V limits assumed) above, with V160F counted along it

| Binder | binding relative to wild-type Fc (CD32B [1]) | binding relative to wild-type Fc (CD32B [2]) | binding relative to wild-type Fc (CD16A V158) | binding relative to wild-type Fc (CD16A F158) |
| --- | --- | --- | --- | --- |
| B1 | 1.07 | 1.07 |  |  |
| B2 |  | 0.92 | 1.85 | 1.9 |
